Results published in IntAct's records for PubMed 24705553.

B1: Autophagy-related protein 19 (Saccharomyces cerevisiae), P35193 (parent)
chain: MNNSKTNQQMNTSMGYPLTVYDECNKFQLIVPTLDANIMLWCIGQLSLLNDSNGCKHLFWQPNDKSNVRILLNNYDYGHLFKYLQCQRKCSVYIGEGTLKKYNLTISTSFDNFLDLTPSEEKESLCREDAHEDPVSPKAGSEEEISPNSTSNVVVSRECLDNFMKQLLKLEESLNKLELEQKVTNKEPNHRISGTIDIPEDRSELVNFFTELKTVKQLEDVFQRYHDYERLSQECDSKTEIASDHSKKETKIEVEPPNERSLQITMNQRDNSLYFQLFNNTNSVLAGNCKLKFTDAGDKPTTQIIDMGPHEIGIKEYKEYRYFPYALDLEAGSTIEIENQYGEVIFLGKYGSSPMINLRPPSRLSAESLQASQEPFYSFQIDTLPELDDSSIISTSISLSYDGDDNEKALTWEEL
partner: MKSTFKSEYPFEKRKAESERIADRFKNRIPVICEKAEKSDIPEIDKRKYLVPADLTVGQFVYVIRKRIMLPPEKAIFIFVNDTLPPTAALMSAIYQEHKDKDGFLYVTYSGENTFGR
B2: Autophagy-related protein 34 (Saccharomyces cerevisiae), Q12292 (parent)
chain: MKIAVETTLFDFFVIDQFKKSTFSAPNTKVDTIKGCINKFIEQFNVYDEQHIFWQPPGKSNVRLLSNANDFGQLGNFLHKKIKCNIFIGEEALRKYDLNICGPYDKFVENSDPSVKKVVNRDDVMLSRKCLNIISEQLSILEKSISKAQNQVLQSSEVEGKKCIILPEDKPELIKFFSKFETSVQLQEVYEGYKVYEKLLQKFGGQKKRMESFLNENTPMSGAEAIKQINISEELKEKGERLTTPNDPLLHVEVSNEDNSLHFILYNKTNIIIPGNCTFEFSSQISEVFSIKMGPHEIGIKGQKELWFFPSLPTPLSNYTMKVVNQDGETILVGKCADSNEITLKSPLASFSTGSFQTGSFHTLQDPTNVFRADALSSPDESSIMSTPFLGETDEVYNSGSTLSRPFTWEEI
partner: B1 partner

Variants of: B1
Settings: with atg8_yeast ATG8, P38182

Variant	effect of a mutation on the interaction
MNNSKTNQQMNTSMGYPLTVYDECNKFQLIVPTLDANIMLWCIGQLSLLNDSNGCKHLFWQPNDKSNVRILLNNYDYGHLFKYLQCQRKCSVYIGEGTLKKYNLTISTSFDNFLDLTPSEEKESLCREDAHEDPVSPKAGSEEEISPNSTSNVVVSRECLDNFMKQLLKLEESLNKLELEQKVTNKEPNHRISGTIDIPEDRSELVNFFTELKTVKQLEDVFQRYHDYERLSQECDSKTEIASDHSKKETKIEVEPPNERSLQITMNQRDNSLYFQLFNNTNSVLAGNCKLKFTDAGDKPTTQIIDMGPHEIGIKEYKEYRYFPYALDLEAGSTIEIENQYGEVIFLGKYGSSPMINLRPPSRLSAESLQASQEPAYSAQIDTLAALDDSSIISTSISLSYDGDDNEKALTAEEL [F376A;F379A;P385A;E386A;W412A]	decreasing interaction strength
MNNSKTNQQMNTSMGYPLTVYDECNKFQLIVPTLDANIMLWCIGQLSLLNDSNGCKHLFWQPNDKSNVRILLNNYDYGHLFKYLQCQRKCSVYIGEGTLKKYNLTISTSFDNFLDLTPSEEKESLCREDAHEDPVSPKAGSEEEISPNSTSNVVVSRECLDNFMKQLLKLEESLNKLELEQKVTNKEPNHRISGTIDIPEDRSELVNFFTELKTVKQLEDVFQRYHDYERLSQECDSKTEIASDHSKKETKIEVEPPNERSLQITMNQRDNSLYFQLFNNTNSVLAGNCKLKFTDAGDKPTTQIIDMGPHEIGIKEYKEYRYFPYALDLEAGSTIEIENQYGEVIFLGKYGSSPMINLRPPSRLSAESLQASQEPAYSAQIDTLPELDDSSIISTSISLSYDGDDNEKALTAEEL [F376A;F379A;W412A]	decreasing interaction strength
MNNSKTNQQMNTSMGYPLTVYDECNKFQLIVPTLDANIMLWCIGQLSLLNDSNGCKHLFWQPNDKSNVRILLNNYDYGHLFKYLQCQRKCSVYIGEGTLKKYNLTISTSFDNFLDLTPSEEKESLCREDAHEDPVSPKAGSEEEISPNSTSNVVVSRECLDNFMKQLLKLEESLNKLELEQKVTNKEPNHRISGTIDIPEDRSELVNFFTELKTVKQLEDVFQRYHDYERLSQECDSKTEIASDHSKKETKIEVEPPNERSLQITMNQRDNSLYFQLFNNTNSVLAGNCKLKFTDAGDKPTTQIIDMGPHEIGIKEYKEYRYFPYALDLEAGSTIEIENQYGEVIFLGKYGSSPMINLRPPSRLSAESLQASQEPAYSAQIDTLPELDDSSIISTSISLSYDGDDNEKALTWEEL [F376A;F379A]	decreasing interaction strength

Variants of: B1
Settings: with atg8_yeast ATG8, P38182
Remark: another data set of the same source

Variant	effect of a mutation on the interaction
MNNSKTNQQMNTSMGYPLTVYDECNKFQLIVPTLDANIMLWCIGQLSLLNDSNGCKHLFWQPNDKSNVRILLNNYDYGHLFKYLQCQRKCSVYIGEGTLKKYNLTISTSFDNFLDLTPSEEKESLCREDAHEDPVSPKAGSEEEISPNSTSNVVVSRECLDNFMKQLLKLEESLNKLELEQKVTNKEPNHRISGTIDIPEDRSELVNFFTELKTVKQLEDVFQRYHDYERLSQECDSKTEIASDHSKKETKIEVEPPNERSLQITMNQRDNSLYFQLFNNTNSVLAGNCKLKFTDAGDKPTTQIIDMGPHEIGIKEYKEYRYFPYALDLEAGSTIEIENQYGEVIFLGKYGSSPMINLRPPSRLSAESLQASQEPAYSAQIDTLAALDDSSIISTSISLSYDGDDNEKALTAEEL [F376A;F379A;P385A;E386A;W412A]	disrupting interaction strength
MNNSKTNQQMNTSMGYPLTVYDECNKFQLIVPTLDANIMLWCIGQLSLLNDSNGCKHLFWQPNDKSNVRILLNNYDYGHLFKYLQCQRKCSVYIGEGTLKKYNLTISTSFDNFLDLTPSEEKESLCREDAHEDPVSPKAGSEEEISPNSTSNVVVSRECLDNFMKQLLKLEESLNKLELEQKVTNKEPNHRISGTIDIPEDRSELVNFFTELKTVKQLEDVFQRYHDYERLSQECDSKTEIASDHSKKETKIEVEPPNERSLQITMNQRDNSLYFQLFNNTNSVLAGNCKLKFTDAGDKPTTQIIDMGPHEIGIKEYKEYRYFPYALDLEAGSTIEIENQYGEVIFLGKYGSSPMINLRPPSRLSAESLQASQEPFYSAQIDTLPELDDSSIISTSISLSYDGDDNEKALTAEEL [F379A;W412A]	decreasing interaction strength
MNNSKTNQQMNTSMGYPLTVYDECNKFQLIVPTLDANIMLWCIGQLSLLNDSNGCKHLFWQPNDKSNVRILLNNYDYGHLFKYLQCQRKCSVYIGEGTLKKYNLTISTSFDNFLDLTPSEEKESLCREDAHEDPVSPKAGSEEEISPNSTSNVVVSRECLDNFMKQLLKLEESLNKLELEQKVTNKEPNHRISGTIDIPEDRSELVNFFTELKTVKQLEDVFQRYHDYERLSQECDSKTEIASDHSKKETKIEVEPPNERSLQITMNQRDNSLYFQLFNNTNSVLAGNCKLKFTDAGDKPTTQIIDMGPHEIGIKEYKEYRYFPYALDLEAGSTIEIENQYGEVIFLGKYGSSPMINLRPPSRLSAESLQASQEPFYSFQIDTLAALDDSSIISTSISLSYDGDDNEKALTAEEL [P385A;E386A;W412A]	decreasing interaction strength

Variants of: B1
Settings: with atg8_yeast ATG8, P38182
Remark: another data set of the same source

Variant	effect of a mutation on the interaction
MNNSKTNQQMNTSMGYPLTVYDECNKFQLIVPTLDANIMLWCIGQLSLLNDSNGCKHLFWQPNDKSNVRILLNNYDYGHLFKYLQCQRKCSVYIGEGTLKKYNLTISTSFDNFLDLTPSEEKESLCREDAHEDPVSPKAGSEEEISPNSTSNVVVSRECLDNFMKQLLKLEESLNKLELEQKVTNKEPNHRISGTIDIPEDRSELVNFFTELKTVKQLEDVFQRYHDYERLSQECDSKTEIASDHSKKETKIEVEPPNERSLQITMNQRDNSLYFQLFNNTNSVLAGNCKLKFTDAGDKPTTQIIDMGPHEIGIKEYKEYRYFPYALDLEAGSTIEIENQYGEVIFLGKYGSSPMINLRPPSRLSAESLQASQEPAYSAQIDTLPELDDSSIISTSISLSYDGDDNEKALTAEEL [F376A;F379A;W412A]	disrupting interaction strength

Variants of: B1
Settings: with atg8_yeast ATG8, P38182
Remark: another data set of the same source

Variant	effect of a mutation on the interaction
MNNSKTNQQMNTSMGYPLTVYDECNKFQLIVPTLDANIMLWCIGQLSLLNDSNGCKHLFWQPNDKSNVRILLNNYDYGHLFKYLQCQRKCSVYIGEGTLKKYNLTISTSFDNFLDLTPSEEKESLCREDAHEDPVSPKAGSEEEISPNSTSNVVVSRECLDNFMKQLLKLEESLNKLELEQKVTNKEPNHRISGTIDIPEDRSELVNFFTELKTVKQLEDVFQRYHDYERLSQECDSKTEIASDHSKKETKIEVEPPNERSLQITMNQRDNSLYFQLFNNTNSVLAGNCKLKFTDAGDKPTTQIIDMGPHEIGIKEYKEYRYFPYALDLEAGSTIEIENQYGEVIFLGKYGSSPMINLRPPSRLSAESLQASQEPFYSFQIDTLPELDDSSIISTSISLSYDGDDNEKALTAEEL [W412A]	decreasing interaction strength

Variants of: B2
Settings: with atg8_yeast ATG8, P38182

Variant	effect of a mutation on the interaction
MKIAVETTLFDFFVIDQFKKSTFSAPNTKVDTIKGCINKFIEQFNVYDEQHIFWQPPGKSNVRLLSNANDFGQLGNFLHKKIKCNIFIGEEALRKYDLNICGPYDKFVENSDPSVKKVVNRDDVMLSRKCLNIISEQLSILEKSISKAQNQVLQSSEVEGKKCIILPEDKPELIKFFSKFETSVQLQEVYEGYKVYEKLLQKFGGQKKRMESFLNENTPMSGAEAIKQINISEELKEKGERLTTPNDPLLHVEVSNEDNSLHFILYNKTNIIIPGNCTFEFSSQISEVFSIKMGPHEIGIKGQKELWFFPSLPTPLSNYTMKVVNQDGETILVGKCADSNEITLKSPLASFSTGSFQTGSFHTLQDPTNVFRADALSSPDESSIMSTPFLGETDEVYNSGSTLSRPFTAEEI [W409A]	disrupting interaction strength
